This test deals with GST-MICAL-L2-ACT (aa 261-1009) (mouse, UniProt Q3TN34 261-1009). Description: pull-down.
Chain of GST-MICAL-L2-ACT (aa 261-1009) (Q3TN34 261-1009): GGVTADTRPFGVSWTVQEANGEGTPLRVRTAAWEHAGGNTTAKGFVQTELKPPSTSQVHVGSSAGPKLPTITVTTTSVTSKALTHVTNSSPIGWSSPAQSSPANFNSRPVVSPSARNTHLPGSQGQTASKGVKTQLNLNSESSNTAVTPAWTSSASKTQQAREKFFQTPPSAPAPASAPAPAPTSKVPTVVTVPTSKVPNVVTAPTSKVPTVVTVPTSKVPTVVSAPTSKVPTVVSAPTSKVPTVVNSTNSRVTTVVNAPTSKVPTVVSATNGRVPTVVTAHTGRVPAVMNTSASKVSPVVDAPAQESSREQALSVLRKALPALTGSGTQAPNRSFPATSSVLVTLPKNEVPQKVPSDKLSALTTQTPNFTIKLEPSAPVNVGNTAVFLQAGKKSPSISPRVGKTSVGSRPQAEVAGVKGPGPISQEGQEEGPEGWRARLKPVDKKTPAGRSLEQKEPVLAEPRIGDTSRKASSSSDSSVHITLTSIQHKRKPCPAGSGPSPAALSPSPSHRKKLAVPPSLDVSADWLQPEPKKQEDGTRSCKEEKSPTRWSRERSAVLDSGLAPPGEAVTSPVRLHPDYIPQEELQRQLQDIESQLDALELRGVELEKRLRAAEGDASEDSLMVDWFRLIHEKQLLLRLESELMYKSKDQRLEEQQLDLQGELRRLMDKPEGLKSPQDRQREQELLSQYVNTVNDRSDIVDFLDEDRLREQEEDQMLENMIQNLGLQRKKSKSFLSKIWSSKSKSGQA

B1: GFP-Rab13 (expressed in L6-GLUT4myc muscle cells) (natural protein, UniProt P51153 1-203, looked up)
chain: MAKAYDHLFKLLLIGDSGVGKTCLIIRFAEDNFNNTYISTIGIDFKIRTVDIEGKKIKLQVWDTAGQERFKTITTAYYRGAMGIILVYDITDEKSFENIQNWMKSIKENASAGVERLLLGNKCDMEAKRKVQKEQADKLAREHGIRFFETSAKSSMNVDEAFSSLARDILLKSGGRRSGNGNKPPSTDLKTCDKKNTNKCSLG
Consider B1, for which the “fold of pull-down, lysates of insulin-stimulated against basal cells” value is about 2 fold.
